target: T1, cMet-his (Homo sapiens (Human), UniProt P08581 25-933); test: BLI (ForteBio Octet), antibody loaded on Protein A tips, his tagged cMET in solution, 1:1 model
T1 construct: also called his tagged cMET; Recombinant polyhistidine-tagged c-Met
Method: Protocol: All reagents are equilibrated and samples are brought to room temperature. Protein A sensor tips (Fortebio, #18-5010) are hydrated for 10 min in 1×PBS. Kinetic assays are run using the Octet software and procedure per manufacturer's instruction. Assay steps typically include: 1-2 min of equilibration in 1×PBS, 4 min of antibody loading (conc: 50 μg/mL in 1×PBS), 1-2 min of baseline stabilization, 4 min of antibody:antigen association, and 4 min of antibody:antigen dissociation. 1×PBS is used as the matrix throughout. Data are analyzed with Octet Data Analysis software, processed, and fit to the curve using 1:1 binding model to determine kinetic parameters (Kₐ, Kₒₙ and Koff)

Kd [nM] | Binder
1.24 | Onartuzumab-23 (antibody, Monovalent tandem Fc antibody: onartuzumab anti-c-Met Fab on IgG1 TFc 23) heavy: EVQLVESGGGLVQPGGSLRLSCAASGYTFTSYWLHWVRQAPGKGLEWVGMIDPSNSDTRFNPNFKDRFTISADTSKNTAYLQMNSLRAEDTAVYYCATYRSYVTPLDYWGQGTLVTVSSASTKGPSVFPLAPSSKSTSGGTAALGCLVKDYFPEPVTVSWNSGALTSGVHTFPAVLQSSGLYSLSSVVTVPSSSLGTQTYICNVNHKPSNTKVDKKVEPKSCDKTHTCPPCPAPELLGGPSVFLFPPKPKDTLMISRTPEVTCVVVDVSHEDPEVKFNWYVDGVEVHNAKTKPREEQYQSTYRVVSVLTVLHQDWLNGKEYKCKVSNKALPAPIEKTISKAKGQPREPQVYTLPPSREEMTKNQVSLSCAVKGFYPSDIAVEWESNGQPENNYKTTPPVLDSDGSFFLVSKLTVDKSRWQQGNVFSCSVMHEALHNHYTQKSLSLSPGKGGGGSGGGGSGGGGSGGGGSGGGGSGGGGSGGGGSGGGGSCPPCPAPELLGGPSVFLFPPKPKDTLMISRTPEVTCVVVDVSHEDPEVKFNWYVDGVEVHNAKTKPREEQYQSTYRVVSVLTVLHQDWLNGKEYKCKVSNKALPAPIEKTISKAKGQPREPQVYTLPPSREEMTKNQVSLWCLVKGFYPSDIAVEWESNGQPENNYKTTPPVLDSDGSFFLYSKLTVDKSRWQQGNVFSCSVMHEALHNHYTQKSLSLSPGK light: DIQMTQSPSSLSASVGDRVTITCKSSQSLLYTSSQKNYLAWYQQKPGKAPKLLIYWASTRESGVPSRFSGSGSGTDFTLTISSLQPEDFATYYCQQYYAYPWTFGQGTKVEIKRTVAAPSVFIFPPSDEQLKSGTASVVCLLNNFYPREAKVQWKVDNALQSGNSQESVTEQDSKDSTYSLSSTLTLSKADYEKHKVYACEVTHQGLSSPVTKSFNRGEC
0.9 | Onartuzumab-39EGY4-cetuximab (bispecific antibody, Anti-c-Met Fab / TFc 39E glycoform 4 / anti-EGFR cetuximab scFv) heavy: EVQLVESGGGLVQPGGSLRLSCAASGYTFTSYWLHWVRQAPGKGLEWVGMIDPSNSDTRFNPNFKDRFTISADTSKNTAYLQMNSLRAEDTAVYYCATYRSYVTPLDYWGQGTLVTVSSASTKGPSVFPLAPSSKSTSGGTAALGCLVKDYFPEPVTVSWNSGALTSGVHTFPAVLQSSGLYSLSSVVTVPSSSLGTQTYICNVNHKPSNTKVDKKVEPKSCDKTHTCPSCPAPEFLGGPSVFLFPPKPKDTLMISRTPEVTCVVVDVSQEDPEVQFNWYVDGVEVHNAKTKPREEQFNSKYRVVSVLTVLHQDWLNGKEYKCKVSNKGLPSSIEKTISKAKGQPREPQVYTLPPSREEMTKNQVSLSCAVKGFYPSDIAVEWESNGQPENNYKTTPPVLDSDGSFFLVSKLTVDKSRWQQGNVFSCSVMHEALHNHYTQKSLSLSKSCDKTGGGGSGGGGSGGGGSGGGGSGGGGSGGGGSGGGGSGGGGSCPSCPAPEFLGGPSVFLFPPKPKDTLMISRTPEVTCVVVDVSQEDPEVQFNWYVDGVEVHNAKTKPREEQFNSDYRVVSVLTVLHQDWLNGKEYKCKVSNKGLPSSIEKTISKAKGQPREPQVYTLPPSREEMTKNQVSLWCLVKGFYPSDIAVEWESNGQPENNYKTTPPVLDSDGSFFLYSKLTVDKSRWQQGNVFSCSVMHEALHNHYTQKSLSLSGECGGGGSGGGGSQVQLVESGGGVVQPGESLRISCAVSGFSLTNYGVHWVRQAPGKGLEWLGVIWSGGNTDYNTPFTSRLTISKDNSKSTVYFQMNSLRAEDTAVYYCARALTYYDYEFAYWGQGTLVTVSSASTGGGGSGGGGSGGGGSGGGGSDIVLTQSPSSLSVTPGEKVTFTCRASQSIGTNIHWYQQKPGQSPKLLIKYASESISGVPSRFSGSGSGTDFTLTINSVEAEDAATYYCQQNNNWPTTFGQGTKLEIK light: DIQMTQSPSSLSASVGDRVTITCKSSQSLLYTSSQKNYLAWYQQKPGKAPKLLIYWASTRESGVPSRFSGSGSGTDFTLTISSLQPEDFATYYCQQYYAYPWTFGQGTKVEIKRTVAAPSVFIFPPSDEQLKSGTASVVCLLNNFYPREAKVQWKVDNALQSGNSQESVTEQDSKDSTYSLSSTLTLSKADYEKHKVYACEVTHQGLSSPVTKSFNRGEC
1.29 | Onartuzumab-39EGY4-2224 (bispecific antibody, Anti-c-Met Fab / TFc 39E glycoform 4 / anti-EGFR 2224 scFv; also called Onartuzumab-39EGY4-224; onartuzumab-39Egy-2224) heavy: EVQLVESGGGLVQPGGSLRLSCAASGYTFTSYWLHWVRQAPGKGLEWVGMIDPSNSDTRFNPNFKDRFTISADTSKNTAYLQMNSLRAEDTAVYYCATYRSYVTPLDYWGQGTLVTVSSASTKGPSVFPLAPSSKSTSGGTAALGCLVKDYFPEPVTVSWNSGALTSGVHTFPAVLQSSGLYSLSSVVTVPSSSLGTQTYICNVNHKPSNTKVDKKVEPKSCDKTHTCPSCPAPEFLGGPSVFLFPPKPKDTLMISRTPEVTCVVVDVSQEDPEVQFNWYVDGVEVHNAKTKPREEQFNSKYRVVSVLTVLHQDWLNGKEYKCKVSNKGLPSSIEKTISKAKGQPREPQVYTLPPSREEMTKNQVSLSCAVKGFYPSDIAVEWESNGQPENNYKTTPPVLDSDGSFFLVSKLTVDKSRWQQGNVFSCSVMHEALHNHYTQKSLSLSKSCDKTGGGGSGGGGSGGGGSGGGGSGGGGSGGGGSGGGGSGGGGSCPSCPAPEFLGGPSVFLFPPKPKDTLMISRTPEVTCVVVDVSQEDPEVQFNWYVDGVEVHNAKTKPREEQFNSDYRVVSVLTVLHQDWLNGKEYKCKVSNKGLPSSIEKTISKAKGQPREPQVYTLPPSREEMTKNQVSLWCLVKGFYPSDIAVEWESNGQPENNYKTTPPVLDSDGSFFLYSKLTVDKSRWQQGNVFSCSVMHEALHNHYTQKSLSLSGECGGGGSGGGGSEVQLVQSGAEVKKPGSSVKVSCKASGGTFSSYAIGWVRQAPGQGLEWMGGIIPIFGIANYAQKFQGRVTITADESTSSAYMELSSLRSEDTAVYYCAREEGPYCSSTSCYAAFDIWGQGTLVTVSSASTGGGGSGGGGSGGGGSGGGGSQSVLTQDPAVSVALGQTVKITCQGDSLRSYFASWYQQKPGQAPTLVMYARNDRPAGVPDRFSGSKSGTSASLAISGLQPEDEADYYCAAWDDSLNGYLFGAGTKLTVL light: DIQMTQSPSSLSASVGDRVTITCKSSQSLLYTSSQKNYLAWYQQKPGKAPKLLIYWASTRESGVPSRFSGSGSGTDFTLTISSLQPEDFATYYCQQYYAYPWTFGQGTKVEIKRTVAAPSVFIFPPSDEQLKSGTASVVCLLNNFYPREAKVQWKVDNALQSGNSQESVTEQDSKDSTYSLSSTLTLSKADYEKHKVYACEVTHQGLSSPVTKSFNRGEC
1.26 | Onartuzumab-39 (antibody, Monovalent tandem Fc antibody: onartuzumab anti-c-Met Fab on IgG1/IgG4 hybrid TFc 39) heavy: EVQLVESGGGLVQPGGSLRLSCAASGYTFTSYWLHWVRQAPGKGLEWVGMIDPSNSDTRFNPNFKDRFTISADTSKNTAYLQMNSLRAEDTAVYYCATYRSYVTPLDYWGQGTLVTVSSASTKGPSVFPLAPSSKSTSGGTAALGCLVKDYFPEPVTVSWNSGALTSGVHTFPAVLQSSGLYSLSSVVTVPSSSLGTQTYICNVNHKPSNTKVDKKVEPKSCDKTHTCPSCPAPEFLGGPSVFLFPPKPKDTLMISRTPEVTCVVVDVSQEDPEVQFNWYVDGVEVHNAKTKPREEQFNSKYRVVSVLTVLHQDWLNGKEYKCKVSNKGLPSSIEKTISKAKGQPREPQVYTLPPSREEMTKNQVSLSCAVKGFYPSDIAVEWESNGQPENNYKTTPPVLDSDGSFFLVSKLTVDKSRWQQGNVFSCSVMHEALHNHYTQKSLSLSPGKGGGGSGGGGSGGGGSGGGGSGGGGSGGGGSGGGGSGGGGSCPSCPAPEFLGGPSVFLFPPKPKDTLMISRTPEVTCVVVDVSQEDPEVQFNWYVDGVEVHNAKTKPREEQFNSKYRVVSVLTVLHQDWLNGKEYKCKVSNKGLPSSIEKTISKAKGQPREPQVYTLPPSREEMTKNQVSLWCLVKGFYPSDIAVEWESNGQPENNYKTTPPVLDSDGSFFLYSKLTVDKSRWQQGNVFSCSVMHEALHNHYTQKSLSLSPGK light: DIQMTQSPSSLSASVGDRVTITCKSSQSLLYTSSQKNYLAWYQQKPGKAPKLLIYWASTRESGVPSRFSGSGSGTDFTLTISSLQPEDFATYYCQQYYAYPWTFGQGTKVEIKRTVAAPSVFIFPPSDEQLKSGTASVVCLLNNFYPREAKVQWKVDNALQSGNSQESVTEQDSKDSTYSLSSTLTLSKADYEKHKVYACEVTHQGLSSPVTKSFNRGEC
